These results are taken from the supplement of paper PMC10126150.

± gives the standard deviation of the averaged measurements.

The subject of the data set is ATP. Kind of data set: switch fluorescence ratio, 500 uM ATP over buffer (Cy3 cluster intensity, sum of 5 cycles each) (fold (ratio)); higher = stronger signal-on switching upon ATP binding; sequences stand for … in TCGTCGGCAGCGTCAGATGTGTATAAGAGACAGTTTTTTTTTTTTTTTTTTTTTTTTT…TC. As to conditions: aptamer strand: ATP DNA aptamer (quencher-CACCTGGGGGAGTATTGCGGAGGAAGG + anchor), 100 nM annealed; ATP concentration: 500 uM. The essentials: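 Per cluster, summed Cy3 intensity from the target cycles was divided by that from the buffer cycles to give the fluorescence ratio, then averaged per switch-domain sequence. Clusters outside 100-1000 RFU were excluded. The Cy3-labelled switching-strand clusters, on a modified Illumina MiSeq flow-cell, were annealed to 100 nM quencher-labelled ATP aptamer and imaged in selection buffer, then after 15 min with 500 uM ATP at 22 °C, for five cycles with NaOH stripping and re-annealing between them.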
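Also: ATP exposure 15 min at 22 °C before imaging.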

Regarding CATGGAATTG, the switch fluorescence ratio amounted to 0.989 ± 0.032. Regarding CATGGAGCGA, the switch fluorescence ratio was determined as 1.24 ± 0.064. Consider CATGGAGTAC, for which the switch fluorescence ratio is 1.02 ± 0.032. Under CATGGCACGT stands 1.02 ± 0.011; under CATGGCCTCT, 0.987 ± 0.034; under CATGGCCTGA, 0.977 ± 0.018. For the sequence CATGGGAATT, the switch fluorescence ratio was found to be 0.982 ± 0.032.

On to CATGGGGGGA, for which the switch fluorescence ratio is 0.994 ± 0.018. Under CATGGGGTTA stands 1.04 ± 0.048; under CATGGGGTTG, 0.978 ± 0.02; under CATGGGTTGC, 0.99 ± 0.029. Under CATGGTAAAT stands 0.984 ± 0.018. The figure for CATGGTACGC is 1.055 ± 0.0043; for CATGGTAGGA it is 0.975 ± 0.026; for CATGGTGTTA it is 1.01 ± 0.025. As to CATGGTTGG, the switch fluorescence ratio was determined as 1.01 ± 0.051. The figure for CATGTACTTT is 1.08 ± 0.031; for CATGTATGGA it is 1.01 ± 0.041. The figure for CATGTCAAGC is 1.05 ± 0.024; for CATGTGCTTC it is 1.03 ± 0.0077; for CATGTGGTCA it is 1.03 ± 0.046. For the sequence CATGTTGCTG, the switch fluorescence ratio came to 1.09 ± 0.029. The figure for CATTAAGGGT is 0.992 ± 0.029; for CATTAATTTG it is 1.01 ± 0.012; for CATTAATTTT it is 0.968 ± 0.044. Under CATTACAGTG stands 1.01 ± 0.014; under CATTACGTGC, 0.996 ± 0.016; under CATTACTGTA, 1.24 ± 0.076. For the sequence CATTAGATCG, the switch fluorescence ratio stood at 0.997 ± 0.044. For CATTATGGGT, the switch fluorescence ratio was 0.95 ± 0.013. As to CATTATTGGG, the switch fluorescence ratio was determined as 0.9851 ± 0.0017. The figure for CATTCAGGGG is 1.2 ± 0.061; for CATTCATGGA it is 1.03 ± 0.035; for CATTCGCCTC it is 2.218 ± 0.015. In the case of CATTCGGGGC, the switch fluorescence ratio was determined as 1.11 ± 0.038. The figure for CATTCGGGGT is 0.994 ± 0.029. Under CATTCGTTTC stands 1.15 ± 0.05; under CATTCTGACG, 1.18 ± 0.033. Turning to CATTCTGCGG, the switch fluorescence ratio came to 1.049 ± 0.002.

On to CATTCTTTGG, for which the switch fluorescence ratio is 0.9836 ± 0.0041. The figure for CATTGAAGAG is 0.998 ± 0.013; for CATTGAGTTC it is 0.978 ± 0.014. Consider CATTGCGGGA, for which the switch fluorescence ratio came to 1.02 ± 0.024. Under CATTGGAAGA stands 1.02 ± 0.015. The figure for CATTGGGACA is 1.02 ± 0.019. The figure for CATTGGGTGC is 1.0458 ± 0.00093.

For the sequence CATTGTAATT, the switch fluorescence ratio worked out at 0.981 ± 0.011. Take CATTGTATGT: the switch fluorescence ratio was found to be 0.9421 ± 0.0087.

As to CATTGTTAAT, the switch fluorescence ratio was determined as 1.01 ± 0.04. Under CATTGTTGAG stands 1.01 ± 0.049. The figure for CATTGTTGAT is 0.989 ± 0.017; for CATTGTTTTG it is 0.9676 ± 0.0041. Turning to CATTTAAAAA, the switch fluorescence ratio stood at 0.919 ± 0.032.

On to CATTTAAGAT, for which the switch fluorescence ratio was found to be 0.997 ± 0.024. The figure for CATTTACCGG is 0.996 ± 0.056; for CATTTACTAT it is 1.05 ± 0.021. As for CATTTAGGTT, the switch fluorescence ratio is 0.982 ± 0.019. Regarding CATTTATGCC, the switch fluorescence ratio is 1.17 ± 0.31. Under CATTTCCTGA stands 1.02 ± 0.038; under CATTTCCTGG, 1.01 ± 0.044; under CATTTGAGTG, 1 ± 0.042.

CATTTGATTG: the switch fluorescence ratio worked out at 0.988 ± 0.013. In the case of CATTTGCCTT, the switch fluorescence ratio worked out at 1.03 ± 0.035.

Regarding CATTTGGAAT, the switch fluorescence ratio was found to be 1.7 ± 0.97.

As to CATTTGGGAC, the switch fluorescence ratio was 1.02 ± 0.047. The figure for CATTTGGGCG is 1.03 ± 0.015.

Consider CATTTTCCGG, for which the switch fluorescence ratio was determined as 1.11 ± 0.16.

In the case of CATTTTCGGC, the switch fluorescence ratio is 1.01 ± 0.039. For the sequence CATTTTGTTG, the switch fluorescence ratio stood at 1.01 ± 0.024. Under CATTTTTAAG stands 1 ± 0.011; under CATTTTTCTG, 0.963 ± 0.06; under CCAAAAAAAG, 1.03 ± 0.032.

CCAAACGAGT: the switch fluorescence ratio came to 0.9661 ± 0.0041. In the case of CCAAAGTATA, the switch fluorescence ratio turned out to be 1.166 ± 0.0013. Turning to CCAAATTGTG, the switch fluorescence ratio was found to be 1.03 ± 0.03.

On to CCAACAGCCC, for which the switch fluorescence ratio was determined as 1.12 ± 0.079. For the sequence CCAACATGAT, the switch fluorescence ratio came to 1.017 ± 0.007. Consider CCAACCATTG, for which the switch fluorescence ratio came to 1.03 ± 0.011. Turning to CCAACTTTAC, the switch fluorescence ratio came out at 1.57 ± 0.037. The figure for CCAAGGAGAC is 1.35 ± 0.052; for CCAAGGCTGG it is 1.02 ± 0.043; for CCAAGGGAGG it is 1.01 ± 0.03. The figure for CCAAGGGGGG is 1.11 ± 0.22; for CCAAGGGTGC it is 1.63 ± 0.11. Under CCAAGTAAGG stands 1.08 ± 0.031; under CCAATAACGC, 1.22 ± 0.074. In the case of CCAATCACGG, the switch fluorescence ratio came to 1.09 ± 0.012.

Take CCAATCTGAC: the switch fluorescence ratio worked out at 1.3 ± 0.14.

As for CCAATGCAGC, the switch fluorescence ratio turned out to be 3.22 ± 0.27.

CCAATGGATA: the switch fluorescence ratio turned out to be 1.03 ± 0.02.

As to CCAATTGAAG, the switch fluorescence ratio is 1.02 ± 0.016.

With CCAATTGCAT, the switch fluorescence ratio came out at 1.12 ± 0.021. The figure for CCAATTGGTG is 1.03 ± 0.016; for CCAATTTATG it is 0.9919 ± 0.0078; for CCAATTTGAA it is 0.9913 ± 0.0081. The figure for CCAATTTGTG is 1 ± 0.028.

For the sequence CCAATTTTAC, the switch fluorescence ratio came out at 1.39 ± 0.055.

Take CCACAATTTT: the switch fluorescence ratio amounted to 1.43 ± 0.63. On to CCACCAATTT, for which the switch fluorescence ratio came to 1.8 ± 1.2. The figure for CCACGGGGGG is 1.27 ± 0.1; for CCACTGGGCG it is 1.07 ± 0.014; for CCACTGGGGG it is 1.04 ± 0.028. The figure for CCAGACGGGC is 1.07 ± 0.059; for CCAGACGGTC it is 1.04 ± 0.085; for CCAGAGGTTG it is 0.999 ± 0.021.

On to CCAGATAACG, for which the switch fluorescence ratio was found to be 1.04 ± 0.022. Consider CCAGATTACT, for which the switch fluorescence ratio turned out to be 1.01 ± 0.015. Take CCAGATTTGT: the switch fluorescence ratio stood at 1.01 ± 0.016. The figure for CCAGCACCTC is 1.45 ± 0.039. For the sequence CCAGCATAAT, the switch fluorescence ratio amounted to 1.41 ± 0.05. Under CCAGCCGTCG stands 1.07 ± 0.04; under CCAGCGTGCT, 1.11 ± 0.08; under CCAGCTAGTT, 1.05 ± 0.086. The figure for CCAGGACGTA is 1.02 ± 0.027; for CCAGGAGGCG it is 0.999 ± 0.015. Under CCAGGAGTAG stands 1.034 ± 0.0039. As to CCAGGAGTCA, the switch fluorescence ratio was 1.032 ± 0.0017. On to CCAGGATGCG, for which the switch fluorescence ratio worked out at 0.971 ± 0.035.

On to CCAGGATTAT, for which the switch fluorescence ratio came to 1.027 ± 0.0034. Under CCAGGCTTGA stands 1.04 ± 0.052.
